Test results published in US7888090B2, “Mutants of O6-alkylguanine-DNA alkyltransferase” (Ecole Polytechnique Federale de Lausanne, priority 2004, dated 2011).

Tests used:
[1] = Expression yield of soluble GST-AGT fusion protein; set-up: species or system E. coli; conditions: comparator not stated
Procedure, shortened: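 GST-AGT fusions expressed in E. coli BL21, induced with 0.5 mM IPTG for 3.5 h at 24 °C, and purified from the soluble fraction on glutathione sepharose. Soluble and insoluble fractions compared by SDS-PAGE. Yield taken from A280 relative to wild-type hAGT purified the same way.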

[2] = Stability after reaction with BG-FL; format: physicochemical
Procedure: Stability before reaction is determined for the mutant AGT or for a mutant AGT fusion protein by incubating purified samples in buffered aqueous solution for up to two weeks at 4° C. and up to six months at −20° C. At several time points, aliquots are taken and concentration of reactive AGT is estimated as described by Juillerat et al., Chem Biol 10:313-317, 2003. Stability for wild type AGT and the AGT mutant after reaction with a labelled substrate and after subsequent separation from unreacted substrate is determined by quantifying the concentration of the label in the soluble fraction over up to two weeks at 4° C. and up to three months at −20° C.
Stability after reaction: The vector pBAD/H is A (Invitrogen) is modified by cloning synthetic oligonucleotides (SEQ ID NO:29 and SEQ ID NO:30) between the NcoI and HindIII sites to include a 12×His-tag and SbfI and AscI cloning sites. The gene of AGTM is amplified with primers SEQ ID NO:31 and SEQ ID NO:32 and cloned between the SbfI/AscI sites into this vector. Wild type AGT and mutant AGT (Lys125Ala, Ala127Thr, Arg128Ala, Asn157Gly, Ser159Glu) are amplified with primers SEQ ID NO:31 and SEQ ID NO:33 and cloned into this vector. Protein expression is carried out in E. coli strain Top 10. An exponentially growing culture is induced with 0.2% arabinose, and the expression is carried out for 16 hours at 28° C. The cells are lysed by adding buffer to 10 ml/g containing 0.5 M NaCl, 80 mM imidazole, 1% Triton, 250 µM PMSF, 1 mM […]-mercaptoethanol, 5 mg/ml lysozyme, 20 µg/ml DNase and stirring for 45 min. […]
The AGT proteins at 10 µM) are quantitatively reacted with fluorescein-modified O^6-benzyl-guanine (substance 5 of Juillerat et al, Chem Biol 10:313-317, 2003, BG-FL, 20 µM) and purified over a size exclusion column (Econopac 10 DG, Bio-Rad) and incubated for 7 days. […] The fluorescence of the supernatant is measured with a Victor2 fluorescence plate reader (Perkin Elmer, excitation/emission at 485/535 nm).

B1: AGTM: AGT mutant Cys62Ala, Gln115Ser, Gln116His, Lys125Ala, Ala127Thr, Arg128Ala, Gly131Lys, Gly132Thr, Met134Leu, Arg135Ser, Cys150Asn, Ser151Ile, Ser152Asn, Asn157Gly, Ser159Glu, truncated after … (protein, UniProt P16455 1-207, looked up, variant C62A Q115S Q116H K125A A127T R128A G131K G132T M134L R135S C150N S151I S152N N157G S159E del183-207)
Methylated-DNA--protein-cystei …: MDKDCEMKRTTLDSPLGKLELSGCEQGLHEIKLLGKGTSAADAVEVPAPAAVLGGPEPLMQATAWLNAYFHQPEAIEEFPVPALHHPVFQQESFTRQVLWKLLKVVKFGEVISYSHLAALAGNPAATAAVKTALSGNPVPILIPCHRVVNINGAVGGYEGGLAVKEWLLAHEGHRLGKPGLG
modifications: His tag
expression yield in E. coli [1]: increased expression yield
time labeled protein remains stable in solution [2]: over 7 days
